The results in this text go back to patent publication US20260152573A1 (ARGENX, published 2026).

As a reminder, the Kd is a measure of binding affinity in units of concentration. As usually defined, the koff is the rate constant with which the complex falls apart. A word on the kon: it is the second-order rate constant of association.

A value given as a limit tells only on which side of the number the result lay.

For assay [1], the target named is T1, human serum albumin (human, UniProt P02768 25-609).
T1 construct: Immobilised on SPR chips; also added in solution in the FcRn occupancy assays; also called HSA; humanSA
Nature of the assay: SPR Biacore, HSA coated, steady state, pH 7.4. Background: SPR reads the build-up and loss of mass on a sensor chip optically.

Assay [2] deals with T1, human serum albumin. Nature of the assay: SPR Biacore, HSA coated, kinetic fit, pH 7.4.
In assay [3] the target is T1, human serum albumin. Nature of the assay: SPR Biacore, HSA coated, steady state, pH 5.5.
Assay [4] addresses T1, human serum albumin. The assay can be described thus: SPR Biacore, HSA coated, kinetic fit, pH 5.5.
The target in assay [5] is T1, human serum albumin. Nature of the assay: SPR Biacore 3000, HSA on chip, pH 5.5.
Assay [6] has as its target T1, human serum albumin. Nature of the assay: SPR Biacore 3000, HSA on chip, pH 7.4.
The target of assay [7] is T1, human serum albumin. The assay can be described thus: SPR Biacore 3000, HSA on chip, ratio of R0 at pH 5.5 and pH 7.4.
Assay [8] addresses T1, human serum albumin. Nature of the assay: SPR Biacore 8K+ SCK, albumin on chip, pH 7.4.
Assay [9] has as its target T1, human serum albumin. Nature of the assay: SPR Biacore 8K+ SCK, albumin on chip, ratio of KD.
Assay [10] addresses T2, cynomolgus monkey serum albumin (cynomolgus monkey, UniProt A2V9Z4 25-608).
T2 construct: Immobilised on SPR chips; also called cynoSA; cynomolgus albumin
Nature of the assay: SPR Biacore 8K+ SCK, albumin on chip, pH 7.4.

The target of assay [11] is T3, mouse serum albumin (mouse, UniProt P07724 25-608).
T3 construct: Immobilised on SPR chips; also called mouseSA; MSA
Nature of the assay: SPR Biacore 8K+ SCK, albumin on chip, pH 7.4.

The target in assay [12] is T1, human serum albumin. The assay can be described thus: SPR Biacore 8K+ SCK, albumin on chip, pH 7.4. The source holds these as a separate data set.
Assay [13] deals with T2, cynomolgus monkey serum albumin. Nature of the assay: SPR Biacore 8K+ SCK, albumin on chip, ratio of KD.
For assay [14] the target is unchanged. Nature of the assay: SPR Biacore 8K+ SCK, albumin on chip, pH 7.4. This is another data set of the same source.
Assay [15] has as its target T1, human serum albumin. Nature of the assay: SPR Biacore 8K+ SCK, albumin on chip, pH 7.4. This is another data set of the same source.
Assay [16] addresses T2, cynomolgus monkey serum albumin. Nature of the assay: SPR Biacore 8K+ SCK, albumin on chip, pH 5.5.
In assay [17] the target is T1, human serum albumin. The assay can be described thus: SPR Biacore 8K+ SCK, albumin on chip, pH 5.5.

B1: OA-Fc-ABDEG-Alb23-S101T (Fc fusion)
chain: DKTHTCPPCPAPELLGGPSVFLFPPKPKDTLYITREPEVTCVVVDVSHEDPEVKFNWYVDGVEVHNAKTKPREEQYNSTYRVVSVLTVLHQDWLNGKEYKCKVSNKALPAPIEKTISKAKGQPREPQVYTLPPSRDELTKNQVSLWCLVKGFYPSDIAVEWESNGQPENNYKTTPPVLDSDGSFFLYSKLTVDKSRWQQGNVFSCSVMHEALKFHYTQKSLSLSPGGGGGSGGGGSGGGGSGGGGSEVQLLESGGGLVQPGGSLRLSCAASGFTFRSFGMSWVRQAPGKGPEWVSSISGSGSDTLYADSVKGRFTISRDNSKNTLYLQMNSLRPEDTAVYYCTIGGTLSRSSQGTLVTVSS
Fc: DKTHTCPPCPAPELLGGPSVFLFPPKPKDTLYITREPEVTCVVVDVSHEDPEVKFNWYVDGVEVHNAKTKPREEQYNSTYRVVSVLTVLHQDWLNGKEYKCKVSNKALPAPIEKTISKAKGQPREPQVYTLPPSRDELTKNQVSLSCAVKGFYPSDIAVEWESNGQPENNYKTTPPVLDSDGSFFLVSKLTVDKSRWQQGNVFSCSVMHEALKFHYTQKSLSLSPG
In the case of B1, the Kd in assay [1] was determined as 315 nM; in assay [2], 206 nM; in [3] it was 70.8 nM; in [4], 54.9 nM.

B2: TA-Fc-ABDEG-2H11 (Fc fusion)
chain: GGGGSGGGGSGGGGSGGGGSELQVVESGGGLVQAGGSLRLSCAASGRTFRSNTMGWFRQAPGKEREFVAAITWSGGTTYYADSVKGRFAISGDNAKNTVYLQMNSLKPEDTAVYYCAAEGPKWEPWNGIYHPADFGSWGQGTQVTVSS
notes: also called 2H11 parental (two-armed Fc-ABDEG-20GS-Cterm fusion); not shown: Fc-ABDEG domain
Regarding B2, in assay [5], the “R0 pH 5.5” value turned out to be 351 RU and the off-rate (koff) was determined as 0.00016 s⁻¹. Moreover, in assay [6], the “R0 pH 7.4” value is 115 RU and the koff was determined as 0.00072 s⁻¹. Besides, the “R0 5.5/7.4” value in assay [7] is 3.

B3: 2H11-v16 fused at the C-terminus of Fc-ABDEG (two-armed) (Fc fusion)
chain: GGGGSGGGGSGGGGSGGGGSELQVVESGGGLVQAGGSLRLSCAASGRTFRSNTMGWFRQAPGKEREFVAAITWSGGTTYYADSVKGRFAISGDNAKNTVYLQMNSLKPEDTAVYYCAAEGPKWEPWNGIYHPADAGSWGQGTQVTVSS
notes: not shown: Fc-ABDEG domain
Turning to B3, in assay [5], the “R0 pH 5.5” value was 8.91 RU and the koff was found to be 0.00301 s⁻¹. In assay [6], the “R0 pH 7.4” value amounted to 0.571 RU and the koff came out at 0.00193 s⁻¹. In addition, the “R0 5.5/7.4” value in [7] came to 16.

B4: 2H11-v3 fused at the C-terminus of Fc-ABDEG (two-armed) (Fc fusion)
chain: GGGGSGGGGSGGGGSGGGGSELQVVESGGGLVQAGGSLRLSCAASGRTFRSNTMGWFRQAPGKEREFVAAITWSGGTTYYADSVKGRFAISGDNAKNTVYLQMNSLKPEDTAVYYCAAEGAKWEPWNGIYHPADFGSWGQGTQVTVSS
notes: not shown: Fc-ABDEG domain
On to B4, for which, in assay [5], the “R0 pH 5.5” value is 164 RU and the koff is 0.000135 s⁻¹. Also, in assay [6], the “R0 pH 7.4” value is 8.24 RU and the koff was 0.0029 s⁻¹. For the same molecule, the “R0 5.5/7.4” value in [7] came out at 19.9.

B5: 2H11-v12 fused at the C-terminus of Fc-ABDEG (two-armed) (Fc fusion)
chain: GGGGSGGGGSGGGGSGGGGSELQVVESGGGLVQAGGSLRLSCAASGRTFRSNTMGWFRQAPGKEREFVAAITWSGGTTYYADSVKGRFAISGDNAKNTVYLQMNSLKPEDTAVYYCAAEGPKWEPWNGIAHPADFGSWGQGTQVTVSS
notes: not shown: Fc-ABDEG domain
B5: in assay [5], the “R0 pH 5.5” value is 93.9 RU and the koff turned out to be 9.72e-05 s⁻¹. In assay [6], the “R0 pH 7.4” value amounted to 6.32 RU and the koff is 0.0012 s⁻¹. Besides, the “R0 5.5/7.4” value in assay [7] turned out to be 14.9.

B6: 2H11-v15 fused at the C-terminus of Fc-ABDEG (two-armed) (Fc fusion)
chain: GGGGSGGGGSGGGGSGGGGSELQVVESGGGLVQAGGSLRLSCAASGRTFRSNTMGWFRQAPGKEREFVAAITWSGGTTYYADSVKGRFAISGDNAKNTVYLQMNSLKPEDTAVYYCAAEGPKWEPWNGIYHPAAFGSWGQGTQVTVSS
notes: not shown: Fc-ABDEG domain
Turning to B6, in [5], the “R0 pH 5.5” value stood at 235 RU and the koff came to 0.00174 s⁻¹. In [6], the “R0 pH 7.4” value turned out to be 0.635 RU and the koff worked out at 0.0025 s⁻¹. The “R0 5.5/7.4” value in assay [7] came to 370.

B7: Alb23 F32A (VHH)
VHH: EVQLLESGGGLVQPGGSLRLSCAASGFTFRSAGMSWVRQAPGKGPEWVSSISGSGSDTLYADSVKGRFTISRDNSKNTLYLQMNSLRPEDTAVYYCTIGGSLSRSSQGTLVTVSS
notes: VHH alone
Regarding B7, the “fold decrease in affinity compared to the parental Alb23 VHH fragment” value (“fold decrease in affinity” for short) in [8] is no less than 10 fold.

B8: Alb23 G33A/S101A (VHH)
VHH: EVQLLESGGGLVQPGGSLRLSCAASGFTFRSFAMSWVRQAPGKGPEWVSSISGSGSDTLYADSVKGRFTISRDNSKNTLYLQMNSLRPEDTAVYYCTIGGALSRSSQGTLVTVSS
notes: VHH alone
Consider B8, for which the “KD pH 5.5/pH 7.4” value in assay [9] was 0.47; in [13], 0.42. In addition, the Kd in assay [10] worked out at 146 nM; in assay [11], 118 nM; in [12], 116 nM; in assay [14], 146 nM; in assay [15], 116 nM; in [16], 61.6 nM. In addition, binding in assay [17] was characterised by a dissociation constant (Kd) of 55 nM. For the same molecule, in assay [8], the “fold decrease in affinity” value was no less than 10 fold. The koff worked out at 0.129 s⁻¹ in assay [14], 0.133 s⁻¹ in assay [15], 0.0711 s⁻¹ in [16] and 0.0672 s⁻¹ in [17]. The on-rate (kon) in [14] was 881000 M⁻¹ s⁻¹; in [15], 1.15e+06 M⁻¹ s⁻¹; in assay [16] it was 1.15e+06 M⁻¹ s⁻¹; in [17] it was 1.22e+06 M⁻¹ s⁻¹.

B9: Alb23 L59A (VHH)
VHH: EVQLLESGGGLVQPGGSLRLSCAASGFTFRSFGMSWVRQAPGKGPEWVSSISGSGSDTAYADSVKGRFTISRDNSKNTLYLQMNSLRPEDTAVYYCTIGGSLSRSSQGTLVTVSS
notes: VHH alone
Consider B9, for which the “KD pH 5.5/pH 7.4” value was 0.56 in assay [9] and 0.46 in assay [13]. Besides, the Kd in assay [10] is 55.6 nM; in assay [11] it was 354 nM; in assay [12], 51 nM; in assay [14], 55.6 nM; in assay [15], 51 nM; in [16], 25.6 nM. For the same molecule, the Kd in assay [17] stood at 28.6 nM. In addition, in assay [8], the “fold decrease in affinity” value was no less than 10 fold. Besides, the koff in assay [14] came to 0.0444 s⁻¹; in assay [15] it was 0.0451 s⁻¹; in assay [16], 0.0241 s⁻¹; in assay [17] it was 0.0268 s⁻¹. Moreover, the association rate constant (kon) in [14] is 797000 M⁻¹ s⁻¹; in assay [15] it was 885000 M⁻¹ s⁻¹; in assay [16] it was 940000 M⁻¹ s⁻¹; in [17], 935000 M⁻¹ s⁻¹.

B10: Alb23 G100A (VHH)
VHH: EVQLLESGGGLVQPGGSLRLSCAASGFTFRSFGMSWVRQAPGKGPEWVSSISGSGSDTLYADSVKGRFTISRDNSKNTLYLQMNSLRPEDTAVYYCTIGASLSRSSQGTLVTVSS
notes: VHH alone
Regarding B10, the “KD pH 5.5/pH 7.4” value in [9] worked out at 0.63; in assay [13], 0.57. Besides, the Kd was found to be 37.9 nM in [10]; 87.8 nM in assay [11]; 30.6 nM in assay [12]; 37.9 nM in assay [14]; 30.6 nM in assay [15]; 21.5 nM in assay [16]. The equilibrium dissociation constant (Kd) in assay [17] is 19.3 nM. Besides, in assay [8], the “fold decrease in affinity” value was no less than 10 fold. For the same molecule, the koff in assay [14] was 0.0266 s⁻¹; in assay [15], 0.0232 s⁻¹; in assay [16], 0.0195 s⁻¹; in assay [17] it was 0.0184 s⁻¹. Moreover, the kon in assay [14] was found to be 701000 M⁻¹ s⁻¹; in assay [15] it was 758000 M⁻¹ s⁻¹; in assay [16], 905000 M⁻¹ s⁻¹; in assay [17] it was 950000 M⁻¹ s⁻¹.

B11: Alb23 G99A (VHH)
VHH: EVQLLESGGGLVQPGGSLRLSCAASGFTFRSFGMSWVRQAPGKGPEWVSSISGSGSDTLYADSVKGRFTISRDNSKNTLYLQMNSLRPEDTAVYYCTIAGSLSRSSQGTLVTVSS
notes: VHH alone
As to B11, the “KD pH 5.5/pH 7.4” value is 0.43 in assay [9] and 0.31 in assay [13]. Further, the Kd in [10] was found to be 152 nM; in assay [11], 73.1 nM; in [12] it was 100 nM; in assay [14] it was 152 nM; in [15], 100 nM; in [16] it was 47.2 nM. The molecule further yielded a Kd in [17] of 42.5 nM. The “fold decrease in affinity” value in assay [8] was no less than 10 fold. In addition, the koff in [14] stood at 0.0809 s⁻¹; in assay [15], 0.0954 s⁻¹; in [16], 0.0495 s⁻¹; in [17], 0.0473 s⁻¹. Besides, the association rate constant (kon) is 533000 M⁻¹ s⁻¹ in assay [14], 955000 M⁻¹ s⁻¹ in assay [15], 1.05e+06 M⁻¹ s⁻¹ in [16] and 1.11e+06 M⁻¹ s⁻¹ in [17].
